# Results reported in patent publication US20260183437A1, “VHH ANTIBODY CONJUGATES WITH HETEROARYL CHELATORS” (ABDERA THERAPEUTICS INC., priority 2022, published 2026).
# Experiments:
# Experiment in all cases: ABC (Antibody Binding Capacity) assay, receptor density
# Type in all cases: cell-based
# SHP-77 = tested on: SHP-77
# Protocol: (§1) In order to test efficacy of the immunoconjugate binding with respect to target density receptor density was measured on target positive cell lines. Target density was measured using the ABC (Antibody Binding Capacity) assay. Cancer cells expressing the target of interest, as well as a negative control cell line, were harvested with cell dissociation buffer, seeded at about 5×10^4 cells per well into 96-well V bottom plate (Sarstedt 82.1583.001). Cells were tested for receptor expression using QuantiBRITE PE beads (BD Cat #340495) and a PE-conjugated anti-hu IgG (Biolegend clone HP6017) following the manufacturers' instructions. In brief, VHH-Fc and isotype control antibodies were prepared at suitable saturating concentrations based on previous experiments. Antibody sample dilutions were incubated with the panel of cell lines on ice for 1 hour. Cells were washed twice with 1% FBS in 1×PBS (FACS buffer), centrifuged at 400 G for 4 min. Cells were then incubated with 4 μg/mL mouse PE-conjugated anti-hu and DAPI (1:1000) for 30 minutes on ice. Cells were washed twice with FACS buffer, centrifuged at 400 G for 4 minutes and resuspended in FACS buffer. Fluorescence intensity on the PE channel was measured on the iQue Screener platform, and data were processed with ForeCyt software. The amount of PE signal generated from the different primary antibody was then fit to a standard curve based off of known PE molecules/Quantibrite bead samples to determine the number of antibody-binding sites per cell. Relative antibody binding sites correlate to the number of antigens or receptors on cell surface.
# H82 = tested on: H82
# Protocol: as §1
# HEK-DLL3 = tested on: HEK-DLL3
# Protocol: as §1
molecule,measurement,setting,value
"Rovalpituzumab: control antibody for DLL3 binding (Creative Biolabs #TAB-216CL) (antibody, chains of the INN, looked up, V domains shown) VH: QVQLVQSGAEVKKPGASVKVSCKASGYTFTNYGMNWVRQAPGQGLEWMGWINTYTGEPTYADDFKGRVTMTTDTSTSTAYMELRSLRSDDTAVYYCARIGDSSPSDYWGQGTLVTVSS VL: EIVMTQSPATLSVSPGERATLSCKASQSVSNDVVWYQQKPGQAPRLLIYYASNRYTGIPARFSGSGSGTEFTLTISSLQSEDFAVYYCQQDYTSPWTFGQGTKLEIK",Estimated number of epitopes/cell,SHP-77,969 epitopes/cell
same,Estimated number of epitopes/cell,H82,936 epitopes/cell
same,Estimated number of epitopes/cell,HEK-DLL3,1679 epitopes/cell
